Results: publication PMC11969672 (Nucleic Acids Research, 2025)

B1: SAMD1–SAM (residues 459–523 with L495R mutation) (domain or fragment, human, UniProt Q6SPF0 459-523, looked up)
chain: PVEWTVMDVVEYFTEAGFPEQATAFQEQEIDGKSLLRMQRTDVLTGLSIRLGPALKIYEHHIKVL
B2: wild-type full-length SAMD1 (natural protein, human, UniProt Q6SPF0 1-538, looked up)
chain: MAGPPALPPPETAAAATTAAAASSSAASPHYQEWILDTIDSLRSRKARPDLERICRMVRRRHGPEPERTRAELEKLIQQRAVLRVSYKGSISYRNAARVQPPRRGATPPAPPRAPRGAPAAAAAAAPPPTPAPPPPPAPVAAAAPARAPRAAAAAATAPPSPGPAQPGPRAQRAAPLAAPPPAPAAPPAVAPPAGPRRAPPPAVAAREPPLPPPPQPPAPPQQQQPPPPQPQPPPEGGAVRAGGAARPVSLREVVRYLGGSGGAGGRLTRGRVQGLLEEEAAARGRLERTRLGALALPRGDRPGRAPPAASARPSRSKRGGEERVLEKEEEEDDDEDEDEEDDVSEGSEVPESDRPAGAQHHQLNGERGPQSAKERVKEWTPCGPHQGQDEGRGPAPGSGTRQVFSMAAMNKEGGTASVATGPDSPSPVPLPPGKPALPGADGTPFGCPPGRKEKPSDPVEWTVMDVVEYFTEAGFPEQATAFQEQEIDGKSLLLMQRTDVLTGLSIRLGPALKIYEHHIKVLQQGHFEDDDPDGFLG

Assays:
[1] = biological target: T1, L3MBTL3–SAM (residues 705–773) (UniProt Q96JM7 705-773); assay: SEC
T1 sequence (looked up): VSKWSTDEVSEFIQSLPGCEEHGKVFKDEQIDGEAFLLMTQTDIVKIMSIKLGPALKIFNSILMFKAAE

[2] = biological target: the molecule itself; assay: negative-staining EM

| Binder | binding result [1] | binding result [2] |
| --- | --- | --- |
| B1 | binds |  |
| B2 |  | binds |
